Laboratory results taken from patent US6140058, “Activation of p53 protein” (Newburn Ellis).

Key:
p53 wild type [1] = biological target: T1, p53 wild type (Homo sapiens, UniProt P04637 P04637:1-393); experiment: EMSA; casein kinase II-activated, 1 mM ATP; conditions: tags: bacterial expression, Fraction III; chain copies: 4 inferred; label: 32P; Hind III compatible overhangs
Description: (§1) In the first stage, wild type p53 (60 ng) or mutant forms of p53 (180 ng) was incubated with ATP and the indicated activating protein at 30° C. for 30 minutes. In the second stage, the consensus site oligonucleotide was added to the reactions to assay for sequence-specific DNA binding. (A) PAb421; lane 1, 3 and 5 (p53, p53 His 273, and p53 Lys285, respectively), lanes 2, 4 and 6 (PAb421 and p53, p53 His273, and p53 Lys285, respectively). (B) DnaK; lanes 1, 5, and 9 (p53, p53 His273, and p53 Lys285, respectively), lanes 2, 6 and 10 (DO-1 and p53, p53 His273, and p53 Lys285, respectively), lanes 3, 7 and 11 (DnaK and p53, p53 His273, and p53 Lys285, respectively), lanes 4, 8 and 12 (DnaK and p53, p53 His273, and p53 Lys285, respectively, followed by DO-1). […] PAb421-activated p53 (solid bar), DnaK-activated p53 (open bar), casein kinase II-activated p53 (stippled bar).

p53 wild type [2] = biological target: T1, p53 wild type; experiment: EMSA; DnaK-activated, 1 mM ATP; conditions: tags: bacterial expression, Fraction III; chain copies: 4 inferred; label: 32P; Hind III compatible overhangs
Description: as §1

T1 sequence (P04637 whole entry, one chain of several): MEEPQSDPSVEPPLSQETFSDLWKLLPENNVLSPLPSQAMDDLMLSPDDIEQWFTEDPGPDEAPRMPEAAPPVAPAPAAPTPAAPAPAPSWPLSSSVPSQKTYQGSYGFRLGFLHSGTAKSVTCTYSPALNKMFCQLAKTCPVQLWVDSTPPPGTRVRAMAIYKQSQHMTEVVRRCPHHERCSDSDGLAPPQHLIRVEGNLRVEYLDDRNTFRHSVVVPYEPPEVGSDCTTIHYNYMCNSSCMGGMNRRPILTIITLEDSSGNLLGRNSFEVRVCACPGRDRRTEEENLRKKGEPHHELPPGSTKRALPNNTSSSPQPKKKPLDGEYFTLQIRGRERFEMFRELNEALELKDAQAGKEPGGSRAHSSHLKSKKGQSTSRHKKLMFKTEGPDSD

B1: PG p53 consensus site (dsDNA)
DNA 1: AGCTTAGACATGCCTAGACATGCCTA
DNA 2: AGCTTAGGCATGTCTAGGCATGTCTA
B1 was tested, and the activity (p53 wild type [1]) was 64 fmol DNA bound/ug protein and the activity (p53 wild type [2]) was 57 fmol DNA bound/ug protein.
